Laboratory results published in patent US20210301277.

Molecular target: T1, human TF (Innovin, DADE/Behring), P13726
T1 chain: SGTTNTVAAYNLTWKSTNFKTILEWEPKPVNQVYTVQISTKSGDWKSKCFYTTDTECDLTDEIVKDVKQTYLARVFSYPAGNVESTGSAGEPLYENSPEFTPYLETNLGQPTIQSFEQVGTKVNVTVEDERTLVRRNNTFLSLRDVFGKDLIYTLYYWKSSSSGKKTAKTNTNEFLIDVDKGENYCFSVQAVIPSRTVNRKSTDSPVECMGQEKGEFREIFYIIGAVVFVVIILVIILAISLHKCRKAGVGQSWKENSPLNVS

B1: FIXgla-egf1FVIIa (protein)
chain: YNSGKLEEFVQGNLERECMEEKCSFEEAREVFENTERTTEFWKQYVDGDQCESNPCLNGGSCKDDINSYECWCPFGFEGKNCETHKDDQLICVNENGGCEQYCSDHTGTKRSCRCHEGYSLLADGVSCTPTVEYPCGKIPILEKRNASKPQGRIVGGKVCPKGECPWQVLLLVNGAQLCGGTLINTIWVVSAAHCFDKIKNWRNLIAVLGEHDLSEHDGDEQSRRVAQVIIPSTYVPGTTNHDIALLRLHQPVVLTDHVVPLCLPERTFSERTLAFVRFSLVSGWGQLLDRGATALELMVLNVPRLMTQDCLQQSRKVGDSPNITEYMFCAGYSDGSKDSCKGDSGGPHATHYRGTWYLTGIVSWGQGCATVGHFGVYTRVSQYIEWLQKLMRSEPRPGVLLRAPFP
FX activation in the presence of 1 nM TF (FXa generation rates, mOD/min): The lack of FX activation, even at 100-fold higher concentration than that of rFVIIa

B2: PCgla-egf1FVIIa (protein)
chain 1: ANSFLEELRHSSLERECIEEICDFEEAKEIFQNVDDTLAFWSKHVDGDQCLVLPLEHPCASLCCGHGTCIDGIGSFSCDCRSGWEGRFCQRKDDQLICVNENGGCEQYCSDHTGTKRSCRCHEGYSLLADGVSCTPTVEYPCGKIPILEKRNASKPQGR
chain 2: IVGGKVCPKGECPWQVLLLVNGAQLCGGTLINTIWVVSAAHCFDKIKNWRNLIAVLGEHDLSEHDGDEQSRRVAQVIIPSTYVPGTTNHDIALLRLHQPVVLTDHVVPLCLPERTFSERTLAFVRFSLVSGWGQLLDRGATALELMVLNVPRLMTQDCLQQSRKVGDSPNITEYMFCAGYSDGSKDSCKGDSGGPHATHYRGTWYLTGIVSWGQGCATVGHFGVYTRVSQYIEWLQKLMRSEPRPGVLLRAPFP
FX activation in the presence of 1 nM TF (FXa generation rates, mOD/min): The lack of FX activation, even at 100-fold higher concentration than that of rFVIIa | TF-dependent activity (FX activation, cleavage of chromogenic FXa substrate at 405 nm): the activity of PCgla-egf1FVIIa was identical to the vehicle control
